The results in this text go back to US20090111098A1 (SHIONOGI, published 2009).

Assay [1] concerns the target T1, peptide GPPGPQG (region corresponding to amino acids 769 to 775 of human type 2 collagen) (human).
T1 construct: The immunogen carried an added N-terminal cysteine and was conjugated to BSA; The DELFIA screen was run as for 6G4
T1 peptide: GPPGPQG
The experiment in a line: property stated for the prepared monoclonal antibody.

For assay [2], the target named is T2, peptide GEPGDDAPS (region corresponding to amino acids 757 to 765 of human type 2 collagen) (human).
T2 construct: The immunogen carried an added C-terminal cysteine and was conjugated to KLH
T2 peptide: GEPGDDAPS
The description is as above.

B1: 2E6 antibody (monoclonal antibody produced by hybridoma TAG-2E6) (antibody, V domains shown)
VH: QVTLKESGPGILQPSQTLSLTCSFSGFSLSTYGMGVGWIRQPSGKGLEWLAHIWWNDNKYYNTTLKSRLTISKDTSNKQVFLKIASVDTADTATYYCARIERWDPWFAYWGQGTLVTVSA
VL: DVVMTQTPLSLPVSLGDQASISCRSSQSLVYSNGNTYFHWYLQKPGQSPKLLIYKVSNRFSGVPDRFSGSGSGTDFTLKISRVEAEDLGVYFCSQSTHVPLTFGAGTKLELKR
notes: Mouse monoclonal IgG2b (k), 150 kDa; also called XL665-labeled 2E6 antibody; FERM ABP-10482
B1: in assay [1], the binding result is reported as “binds”.

B2: 6G4 antibody (monoclonal antibody produced by hybridoma TAG-6G4) (antibody, IgG1, V domains shown)
VH: EVQLVESGGSLVQPGGSLKLSCAASGFTFNNYGMSWVRQIPDKRLELVATITGNGHSTYYPVSVRGRFTISRDNAKNTLYLQMSSLKSEDTAMYYCVRGYSNFAFWGQGTTLTVSS
VL: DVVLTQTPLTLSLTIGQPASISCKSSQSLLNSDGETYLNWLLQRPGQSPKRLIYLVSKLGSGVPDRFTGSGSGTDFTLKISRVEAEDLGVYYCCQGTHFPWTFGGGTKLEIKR
notes: Mouse monoclonal IgG1 (k), 150 kDa; also called cryptate-labeled 6G4 antibody; FERM ABP-10483
For the molecule B2, the binding result in assay [2] is given as “binds”.
